Data: paper PMC7110780, “Multimodular fused acetyl–feruloyl esterases from soil and gut Bacteroidetes improve xylanase depolymerization of recalcitrant biomass” (Biotechnology for Biofuels, 2020)

Assays:
[1] = tested on: CC(=O)Oc1ccc2c(C)cc(=O)oc2c1; assay: purified protein; type: biochemical, Bacteroides ovatus; conditions: pH 8.0, 37 °C, 100 mM buffer
[2] = tested on: CC(=O)Oc1ccc([N+](=O)[O-])cc1; assay: purified protein; type: biochemical, Bacteroides ovatus; conditions: pH 8.0, 37 °C, 100 mM buffer

BoCE1 (Bacteroides ovatus) gave a Km [1] of 40 ± 10 µM, a kcat [1] of 0.28 ± 0.01 s⁻¹ and a kcat/Km [1] of 7100 ± 1600 M⁻¹ s⁻¹. For the same substance, the Km [2] was 1400 ± 100 µM, the kcat [2] was 0.7 ± 0.02 s⁻¹ and the kcat/Km [2] was 500 ± 40 M⁻¹ s⁻¹.

BoCE6 (Bacteroides ovatus) showed a Km [1] of 27 ± 6 µM, a kcat [1] of 1.2 ± 0.1 s⁻¹ and a kcat/Km [1] of 42800 ± 10000 M⁻¹ s⁻¹. The Km [2] was 1800 ± 200 µM, the kcat [2] was 36 ± 2.2 s⁻¹ and the kcat/Km [2] was 20100 ± 2700 M⁻¹ s⁻¹.
